Laboratory results from article PMC8748794.

Molecular target: Spt16/Pob3 heterodimer (yeast FACT), full length (yeast) (UniProt P32558)
UniProt P32558, sequence (P32558 whole entry, chain 1 of 2): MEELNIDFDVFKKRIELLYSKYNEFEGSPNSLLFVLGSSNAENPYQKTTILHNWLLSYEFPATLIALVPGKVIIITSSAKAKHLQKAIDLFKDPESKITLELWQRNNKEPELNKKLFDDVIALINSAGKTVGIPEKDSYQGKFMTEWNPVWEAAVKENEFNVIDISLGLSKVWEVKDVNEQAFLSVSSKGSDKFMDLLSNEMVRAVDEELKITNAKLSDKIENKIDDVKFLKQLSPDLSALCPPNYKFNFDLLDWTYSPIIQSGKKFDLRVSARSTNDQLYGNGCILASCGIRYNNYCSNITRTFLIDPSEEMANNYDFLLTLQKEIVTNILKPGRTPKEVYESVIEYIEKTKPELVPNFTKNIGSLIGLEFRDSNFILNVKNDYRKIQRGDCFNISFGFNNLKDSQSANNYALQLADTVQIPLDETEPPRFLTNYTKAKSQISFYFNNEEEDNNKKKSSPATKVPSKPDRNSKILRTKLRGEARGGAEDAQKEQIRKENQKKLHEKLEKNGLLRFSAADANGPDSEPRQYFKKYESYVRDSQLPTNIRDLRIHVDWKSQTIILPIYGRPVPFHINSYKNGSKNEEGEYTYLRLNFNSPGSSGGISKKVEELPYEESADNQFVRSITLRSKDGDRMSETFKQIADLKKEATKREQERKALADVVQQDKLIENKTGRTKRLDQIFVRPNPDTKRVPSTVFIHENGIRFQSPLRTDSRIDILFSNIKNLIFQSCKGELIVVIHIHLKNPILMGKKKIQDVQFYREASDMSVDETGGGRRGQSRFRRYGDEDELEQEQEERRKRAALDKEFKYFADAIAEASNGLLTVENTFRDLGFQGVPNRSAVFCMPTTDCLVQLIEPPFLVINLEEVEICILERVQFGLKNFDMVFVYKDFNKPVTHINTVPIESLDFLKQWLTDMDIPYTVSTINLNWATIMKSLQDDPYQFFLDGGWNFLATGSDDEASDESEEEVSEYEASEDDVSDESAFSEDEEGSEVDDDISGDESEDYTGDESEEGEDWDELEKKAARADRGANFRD
UniProt P32558, sequence (Q04636 whole entry, chain 2 of 2, further chain): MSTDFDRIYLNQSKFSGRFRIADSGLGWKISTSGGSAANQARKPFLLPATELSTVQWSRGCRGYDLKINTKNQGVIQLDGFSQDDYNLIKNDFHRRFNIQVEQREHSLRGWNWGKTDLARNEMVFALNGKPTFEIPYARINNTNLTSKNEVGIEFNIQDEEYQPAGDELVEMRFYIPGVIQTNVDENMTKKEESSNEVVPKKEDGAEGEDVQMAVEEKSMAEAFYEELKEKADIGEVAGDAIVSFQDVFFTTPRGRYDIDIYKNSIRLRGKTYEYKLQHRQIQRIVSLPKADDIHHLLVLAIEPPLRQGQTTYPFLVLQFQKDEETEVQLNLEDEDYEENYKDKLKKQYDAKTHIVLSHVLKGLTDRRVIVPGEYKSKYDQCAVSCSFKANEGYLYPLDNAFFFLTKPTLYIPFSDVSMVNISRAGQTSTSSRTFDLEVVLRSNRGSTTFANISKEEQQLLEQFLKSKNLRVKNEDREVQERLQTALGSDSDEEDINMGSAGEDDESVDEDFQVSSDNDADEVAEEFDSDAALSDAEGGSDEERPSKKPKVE

Substance: Nhp6 (non-histone protein), HMGB-domain factor (from UniProt P11632 1-93) (natural protein)
- fraction of FACT particles in the open conformation (>90°) by negative-stain EM; 36% for FACT alone: 51%
